Measurements from article PMC7299284, “Studies in humanized mice and convalescent humans yield a SARS-CoV-2 antibody cocktail” (Science (New York, N.y.), 2020).

Target: T1, SARS-CoV-2 spike RBD (as in the cryo-EM complex with REGN10933 and REGN10987 Fabs) (SARS-CoV-2, UniProt P0DTC2)
T1 construct: also called SARS-CoV-2 RBD
Assay: cryo-EM structure; single-particle cryo-EM of SARS-CoV-2 spike RBD bound to Fab fragments of REGN10933 and REGN10987, nominal resolution 3.9 Å
Details: both partners purified

B1: Fab fragment of REGN10933 (Fab, V domains shown)
VH: QVQLVESGGGLVKPGGSLRLSCAASGFTFSDYYMSWIRQAPGKGLEWVSYITYSGSTIYYADSVKGRFTISRDNAKSSLYLQMNSLRAEDTAVYYCARDRGTTMVPFDYWGQGTLVTVSS
VL: DIQMTQSPSSLSASVGDRVTITCQASQDITNYLNWYQQKPGKAPKLLIYAASNLETGVPSRFSGSGSGTDFTFTISGLQPEDIATYYCQQYDNLPLTFGGGTKVEIK
notes: also called REGN10933 Fab
- binding result: binds

B2: Fab fragment of REGN10987 (Fab, V domains shown)
VH: QVQLVESGGGVVQPGRSLRLSCAASGFTFSNYAMYWVRQAPGKGLEWVAVISYDGSNKYYADSVKGRFTISRDNSKNTLYLQMNSLRTEDTAVYYCASGSDYGDYLLVYWGQGTLVTVSS
VL: QSALTQPASVSGSPGQSITISCTGTSSDVGGYNYVSWYQQHPGKAPKLMIYDVSKRPSGVSNRFSGSKSGNTASLTISGLQSEDEADYYCNSLTSISTWVFGGGTKLTVL
notes: also called REGN10987 Fab
- binding result: binds
